Results on 29 molecules are retold here after US20260242478A1 (published 2026).

Experiment [1] concerns the target T1, Anti-PSMA Fab (SEQ ID NOs: 19, 20).
T1 construct: In the phage ELISA the Fab was biotinylated and captured on neutravidin coated plates; also called 006 PSMA Fab
The experiment is described as follows: phage ELISA; PSMA Fab on plate pre-incubated with PSMA antigen as competitor, anti-M13 HRP detection. (In general: An ELISA detects its analyte on a solid surface through an enzyme-linked reagent.)
Procedure: (§1) Clonal phage were harvested as crude supernatants and screened via standard ELISAs. […] Prior to the addition of clonal phage. wells were incubated with blocking buffer and PSMA antigen or blocking buffer alone. Without washing or aspirating, clonal phage supernatants were then added to the wells and incubated for a short time. Wells were then washed followed by detection of bound phage using a horse radish conjugated anti-M13 antibody.

For experiment [2] the target is unchanged. As to the kind of experiment: phage ELISA; biotinylated PSMA Fab on neutravidin plate, clonal phage supernatant, anti-M13 HRP detection.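 Further: wells preincubated with PSMA antigen in blocking buffer or with blocking buffer only before clonal phage were added for a short incubation, then bound phage detected.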
Procedure: as §1
Experiment [3] has as its target T2, Anti-PSMA Fab (SEQ ID NOs: 19, 20).
T2 construct: Biotinylated PSMA Fab captured on neutravidin coated plates in the phage ELISA; also called 006 PSMA Fab
The experiment is described as follows: phage binding ELISA; biotinylated PSMA Fab on neutravidin plate, clonal phage supernatant, anti-M13 HRP detection.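 Further: wells were preincubated with blocking buffer either containing PSMA antigen or without it before crude phage supernatant was added, briefly incubated, then washed prior to detection.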
Procedure: as §1

For experiment [4] the target is unchanged. The experiment is described as follows: phage binding ELISA; PSMA Fab on plate pre-incubated with PSMA antigen as competitor, anti-M13 HRP detection.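 Further: crude clonal phage supernatants added without washing to wells preincubated with PSMA in blocking buffer, compared with wells receiving blocking buffer only, then bound phage detected.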
Procedure: as §1
In experiment [5] the target is T3, Anti-PSMA Fab (SEQ ID NOs: 19, 20).
T3 construct: Biotinylated PSMA Fab captured on neutravidin coated plates in the phage ELISA; also called 006 PSMA Fab
The experiment is described as follows: phage binding ELISA; biotinylated anti-PSMA Fab on neutravidin plate, bound phage detected with anti-M13-HRP.
Procedure: as §1

For experiment [6] the target is unchanged. The experiment is described as follows: phage binding ELISA on captured anti-PSMA Fab; competitor: PSMA antigen pre-incubated in the wells.
Procedure: as §1

Where no end group is shown, it is not given here.
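Wherever Phage binding ELISA, Anti-PSMA Fab signal in the presence of PSMA is given: crude clonal phage supernatants added to Fab-coated wells still holding PSMA antigen in blocking buffer, with bound phage as read-out.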

B1: Phage-1853 (peptide)
peptide: MEKWCIPEWMCLHT
modifications: cysteine pairing not given here; also: displayed on phage as pIII fusion, pIII and linker sequences not given here
notes: Clone of the Peptide-180 library
Regarding B1, in experiment [1], the “Phage binding ELISA, Anti-PSMA Fab signal in the presence of PSMA” value (shortened to “Phage binding ELISA … of PSMA”) turned out to be 0.0816. The “Phage binding ELISA, Anti-PSMA Fab signal” value in experiment [2] stood at 2.17.

B2: Phage-1842 (peptide)
peptide: VERWCVPEWMCHWI
notes: tested as crude clonal phage supernatant
As for B2, in experiment [3], the “Anti-PSMA Fab (SEQ ID NOs: 19, 20) signal” value worked out at 2.23. In addition, the “Anti-PSMA Fab signal in the presence of PSMA” value in experiment [4] was determined as 0.0977.

B3: Phage-1858 (peptide)
peptide: VDKWCTPIWMCEGF
modifications: cysteine pairing not given here; also: displayed on phage as pIII fusion, pIII and linker sequences not given here
notes: as for B1
For the molecule B3, the “Phage binding ELISA … of PSMA” value in experiment [1] came out at 0.0951. The “Phage binding ELISA, Anti-PSMA Fab signal” value in experiment [2] worked out at 2.16.

B4: Phage-1846 (peptide)
peptide: PSMRCIPEWMCAML
modifications: cysteine pairing not given here; also: displayed on phage as pIII fusion, pIII and linker sequences not given here
notes: as for B1
In the case of B4, in experiment [1], the “Phage binding ELISA … of PSMA” value worked out at 0.0824. For the same molecule, the “Phage binding ELISA, Anti-PSMA Fab signal” value in experiment [2] turned out to be 2.2.

B5: Phage-1845 (peptide)
peptide: FTNWCTPEWMCSGF
notes: as for B2
Regarding B5, the “Anti-PSMA Fab (SEQ ID NOs: 19, 20) signal” value in experiment [3] came to 2.21. Besides, the “Anti-PSMA Fab signal in the presence of PSMA” value in experiment [4] came to 0.0826.
As for AVKLCIPEWMCVGQ [Phage-1861], in experiment [5], the “Anti-PSMA Fab (SEQ ID NOs: 19, 20) signal” value was 2.15. The “Anti-PSMA Fab signal in the presence of PSMA” value in experiment [6] came to 0.0676.

B6: Phage-1859 (peptide)
peptide: VEKWCVPTWMCDWV
modifications: cysteine pairing not given here; also: displayed on phage as pIII fusion, pIII and linker sequences not given here
notes: as for B1
On to B6, for which the “Phage binding ELISA … of PSMA” value in experiment [1] was found to be 0.0833. The “Phage binding ELISA, Anti-PSMA Fab signal” value in experiment [2] amounted to 2.16.

B7: Phage-1839 (peptide)
peptide: YDILCRPSWMCSWV
notes: as for B2
Consider B7, for which the “Anti-PSMA Fab (SEQ ID NOs: 19, 20) signal” value in experiment [3] was 2.24. In experiment [4], the “Anti-PSMA Fab signal in the presence of PSMA” value amounted to 0.145.

B8: Phage-1840 (peptide)
peptide: MVKWCIPSWMCDSV
notes: as for B2
For B8, in experiment [3], the “Anti-PSMA Fab (SEQ ID NOs: 19, 20) signal” value turned out to be 2.23. The “Anti-PSMA Fab signal in the presence of PSMA” value in experiment [4] was determined as 0.109.

B9: Phage-1836 (peptide)
peptide: WLPMCRPAWMCAGL
modifications: cysteine pairing not given here; also: displayed on phage as pIII fusion, pIII sequence and linker not given here
notes: as for B2
Turning to B9, the “Anti-PSMA Fab (SEQ ID NOs: 19, 20) signal” value in experiment [3] stood at 2.27. In experiment [4], the “Anti-PSMA Fab signal in the presence of PSMA” value was determined as 0.0653.

B10: Phage-1854 (peptide)
peptide: WEKWCTPQWMCELI
modifications: cysteine pairing not given here; also: displayed on phage as pIII fusion, pIII and linker sequences not given here
notes: as for B1
For B10, the “Phage binding ELISA … of PSMA” value in experiment [1] was determined as 0.182. In addition, the “Phage binding ELISA, Anti-PSMA Fab signal” value in experiment [2] was found to be 2.17.

B11: Phage-1850 (peptide)
peptide: PTKLCIPEWMCYVR
modifications: cysteine pairing not given here; also: displayed on phage as pIII fusion, pIII and linker sequences not given here
notes: as for B1
As for B11, the “Phage binding ELISA … of PSMA” value in experiment [1] is 0.0692. In experiment [2], the “Phage binding ELISA, Anti-PSMA Fab signal” value came out at 2.17.

B12: Phage-1849 (peptide)
peptide: FSHWCIPEWMCSTS
modifications: cysteine pairing not given here; also: displayed on phage as pIII fusion, pIII and linker sequences not given here
notes: as for B1
As for B12, the “Phage binding ELISA … of PSMA” value in experiment [1] stood at 0.158. Further, the “Phage binding ELISA, Anti-PSMA Fab signal” value in experiment [2] came to 2.18.

B13: Phage-1838 (peptide)
peptide: VMKWCIPVWMCGGM
notes: as for B2
For B13, the “Anti-PSMA Fab (SEQ ID NOs: 19, 20) signal” value in experiment [3] was found to be 2.26. Further, the “Anti-PSMA Fab signal in the presence of PSMA” value in experiment [4] stood at 0.291.
In the case of LDKWCIPEWMCFDY [Phage-1862], the “Anti-PSMA Fab (SEQ ID NOs: 19, 20) signal” value in experiment [5] is 2.14. Also, the “Anti-PSMA Fab signal in the presence of PSMA” value in experiment [6] is 0.0678.

B14: Phage-1834 (peptide)
peptide: VERMCMPAWMCDMF
notes: as for B2
In the case of B14, the “Anti-PSMA Fab (SEQ ID NOs: 19, 20) signal” value in experiment [3] was 2.28. Besides, in experiment [4], the “Anti-PSMA Fab signal in the presence of PSMA” value worked out at 0.0862.

B15: Phage-1855 (peptide)
peptide: MEKWCTPSWMCVGF
modifications: cysteine pairing not given here; also: displayed on phage as pIII fusion, pIII and linker sequences not given here
notes: as for B1
As to B15, the “Phage binding ELISA … of PSMA” value in experiment [1] stood at 0.148. Moreover, in experiment [2], the “Phage binding ELISA, Anti-PSMA Fab signal” value worked out at 2.17.

B16: Phage-1847 (peptide)
peptide: SMHWCTPKWMCEGL
modifications: cysteine pairing not given here; also: displayed on phage as pIII fusion, pIII and linker sequences not given here
notes: as for B1
B16: in experiment [1], the “Phage binding ELISA … of PSMA” value came out at 0.147. In experiment [2], the “Phage binding ELISA, Anti-PSMA Fab signal” value is 2.2.

B17: Phage-1835 (peptide)
peptide: YEKWCVPDWMCSMI
notes: as for B2
Consider B17, for which, in experiment [3], the “Anti-PSMA Fab (SEQ ID NOs: 19, 20) signal” value amounted to 2.28. For the same molecule, the “Anti-PSMA Fab signal in the presence of PSMA” value in experiment [4] stood at 0.0678.

B18: Phage-1843 (peptide)
peptide: LDRWCIPEWMCEMF
notes: as for B2
As for B18, the “Anti-PSMA Fab (SEQ ID NOs: 19, 20) signal” value in experiment [3] was found to be 2.22. Further, the “Anti-PSMA Fab signal in the presence of PSMA” value in experiment [4] is 0.0928.

B19: Phage-1837 (peptide)
peptide: GLNWCTPTWMCQGF
notes: as for B2
As to B19, the “Anti-PSMA Fab (SEQ ID NOs: 19, 20) signal” value in experiment [3] was 2.26. Further, in experiment [4], the “Anti-PSMA Fab signal in the presence of PSMA” value worked out at 0.0833.

B20: Phage-1848 (peptide)
peptide: AIPWCIPAWMCQVF
modifications: cysteine pairing not given here; also: displayed on phage as pIII fusion, pIII and linker sequences not given here
notes: as for B1
On to B20, for which the “Phage binding ELISA … of PSMA” value in experiment [1] stood at 0.234. Moreover, the “Phage binding ELISA, Anti-PSMA Fab signal” value in experiment [2] came out at 2.18.

B21: Phage-1851 (peptide)
peptide: SEMLCKPSWMCLGF
modifications: cysteine pairing not given here; also: displayed on phage as pIII fusion, pIII and linker sequences not given here
notes: as for B1
For B21, the “Phage binding ELISA … of PSMA” value in experiment [1] is 0.0726. Besides, the “Phage binding ELISA, Anti-PSMA Fab signal” value in experiment [2] amounted to 2.17.

B22: Phage-1841 (peptide)
peptide: TDKWCIPPWMCMLQ
notes: as for B2
Regarding B22, the “Anti-PSMA Fab (SEQ ID NOs: 19, 20) signal” value in experiment [3] is 2.23. For the same molecule, the “Anti-PSMA Fab signal in the presence of PSMA” value in experiment [4] is 0.0865.

B23: Phage-1852 (peptide)
peptide: WDHWCTPAWMCEFV
modifications: cysteine pairing not given here; also: displayed on phage as pIII fusion, pIII and linker sequences not given here
notes: as for B1
In the case of B23, the “Phage binding ELISA … of PSMA” value in experiment [1] was determined as 0.0692. Moreover, the “Phage binding ELISA, Anti-PSMA Fab signal” value in experiment [2] was 2.17.

B24: Phage-1860 (peptide)
peptide: GDNWCKPEWMCIGF
modifications: cysteine pairing not given here; also: displayed on phage as pIII fusion, pIII and linker sequences not given here
notes: as for B1
Turning to B24, the “Phage binding ELISA … of PSMA” value in experiment [1] amounted to 0.0978. In experiment [2], the “Phage binding ELISA, Anti-PSMA Fab signal” value came out at 2.16.

B25: Phage-1844 (peptide)
peptide: TDKLCIPEWMCINW
notes: as for B2
Turning to B25, the “Anti-PSMA Fab (SEQ ID NOs: 19, 20) signal” value in experiment [3] was 2.22. Moreover, in experiment [4], the “Anti-PSMA Fab signal in the presence of PSMA” value amounted to 0.0602.

B26: Phage-1856 (peptide)
peptide: MGNWCIPTWMCTGF
modifications: cysteine pairing not given here; also: displayed on phage as pIII fusion, pIII and linker sequences not given here
notes: as for B1
With B26, the “Phage binding ELISA … of PSMA” value in experiment [1] was determined as 0.162. In addition, the “Phage binding ELISA, Anti-PSMA Fab signal” value in experiment [2] amounted to 2.16.

B27: Phage-1857 (peptide)
peptide: VMKWCIPSWMCSQD
modifications: cysteine pairing not given here; also: displayed on phage as pIII fusion, pIII and linker sequences not given here
notes: as for B1
In the case of B27, the “Phage binding ELISA … of PSMA” value in experiment [1] came out at 0.165. In addition, in experiment [2], the “Phage binding ELISA, Anti-PSMA Fab signal” value came to 2.16.
